Measured values reported in US20200407442A1 (WUXI BIOLOGICS IRELAND, published 2020).

Experiments:
[1] = biological target: T1, full-length mouse LAG-3 on cells (mouse, UniProt Q61790 24-521); experiment: FACS, 1 ug/mL antibody, transfected 293F cells
T1 construct: also called mPro1.FL; murine LAG-3
T1 sequence: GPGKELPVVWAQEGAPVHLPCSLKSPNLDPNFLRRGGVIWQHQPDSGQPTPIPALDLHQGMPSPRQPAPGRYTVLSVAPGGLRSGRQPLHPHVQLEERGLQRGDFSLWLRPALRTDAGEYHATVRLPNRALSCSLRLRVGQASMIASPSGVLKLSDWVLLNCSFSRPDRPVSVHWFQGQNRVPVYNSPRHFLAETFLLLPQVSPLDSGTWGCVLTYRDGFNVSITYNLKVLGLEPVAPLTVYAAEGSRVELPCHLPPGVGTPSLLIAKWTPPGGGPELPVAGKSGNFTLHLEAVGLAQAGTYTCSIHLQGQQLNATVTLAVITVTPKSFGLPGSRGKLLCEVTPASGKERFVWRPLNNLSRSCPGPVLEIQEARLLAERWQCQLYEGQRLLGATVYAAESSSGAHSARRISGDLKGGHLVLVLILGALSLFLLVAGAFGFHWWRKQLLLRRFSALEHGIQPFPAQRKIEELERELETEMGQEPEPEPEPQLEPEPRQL
Experimental: (§1) The 10 variants were cloned into pcDNA3 vector and used for 293F cell transfection. Briefly, 293F cells were diluted to a density of 1×10⁶ cells/mL with FreeStyle 293F medium and aliquots of 3 mL/well were added to 24-well plate. Transfections were performed using 293fectin reagent (Life Technologies). For each transfection, 3 μg of DNA were diluted in 150 μOpti-MEM I-reduced serum medium (Life Technologies), and then combined with 6μL 293fectin reagent pre-diluted in 150 μL Opti-MEM I reduced serum medium. The DNA/[…] mixture was allowed to stand at 25° C. for 20 min before being added to the culture. The transfected cells were analyzed by flow cytometry at 48 h post-transfection.
(§2) Binding of antibodies to chimeric LAG-3 variants or full length human/mouse LAG-3 was analyzed by flow cytometry. Briefly, 1 μg/mL antibodies were incubated with chimeric LAG-3-expressing transfected 293F cells for 1 hour at 4° C., and then incubated with 3 μg/mL goat anti-human IgG Fc R-PE (Jackson) for 40 min at 4° C. Cells were analyzed with flow cytometer.

Variant 1: xPro1.FL-x1 = biological target: T2, Variant 1: xPro1.FL-x1 (human; mouse); experiment: FACS, 1 ug/mL antibody, transfected 293F cells
T2 construct: Chimeric full-length LAG-3 on transfected 293F cells
T2 chain: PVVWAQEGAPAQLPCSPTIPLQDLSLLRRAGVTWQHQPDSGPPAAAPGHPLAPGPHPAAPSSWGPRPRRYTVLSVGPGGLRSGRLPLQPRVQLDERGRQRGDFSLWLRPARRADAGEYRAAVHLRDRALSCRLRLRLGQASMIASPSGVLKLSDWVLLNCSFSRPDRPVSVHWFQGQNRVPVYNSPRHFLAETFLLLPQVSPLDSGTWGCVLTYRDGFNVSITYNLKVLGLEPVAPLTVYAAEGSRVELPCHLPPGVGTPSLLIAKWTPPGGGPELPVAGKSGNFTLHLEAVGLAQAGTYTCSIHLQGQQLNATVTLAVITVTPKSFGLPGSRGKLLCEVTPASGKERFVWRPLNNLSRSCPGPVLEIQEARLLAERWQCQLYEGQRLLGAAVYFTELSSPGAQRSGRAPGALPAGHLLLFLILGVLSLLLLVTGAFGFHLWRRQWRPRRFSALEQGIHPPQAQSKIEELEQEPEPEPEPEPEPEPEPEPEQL
Experimental: as §1, §2

Variant 8: xPro1.FL-x8 = biological target: T3, Variant 8: xPro1.FL-x8 (human; mouse); experiment: FACS, 1 ug/mL antibody, transfected 293F cells
T3 construct: Chimeric full-length LAG-3 on transfected 293F cells
T3 chain: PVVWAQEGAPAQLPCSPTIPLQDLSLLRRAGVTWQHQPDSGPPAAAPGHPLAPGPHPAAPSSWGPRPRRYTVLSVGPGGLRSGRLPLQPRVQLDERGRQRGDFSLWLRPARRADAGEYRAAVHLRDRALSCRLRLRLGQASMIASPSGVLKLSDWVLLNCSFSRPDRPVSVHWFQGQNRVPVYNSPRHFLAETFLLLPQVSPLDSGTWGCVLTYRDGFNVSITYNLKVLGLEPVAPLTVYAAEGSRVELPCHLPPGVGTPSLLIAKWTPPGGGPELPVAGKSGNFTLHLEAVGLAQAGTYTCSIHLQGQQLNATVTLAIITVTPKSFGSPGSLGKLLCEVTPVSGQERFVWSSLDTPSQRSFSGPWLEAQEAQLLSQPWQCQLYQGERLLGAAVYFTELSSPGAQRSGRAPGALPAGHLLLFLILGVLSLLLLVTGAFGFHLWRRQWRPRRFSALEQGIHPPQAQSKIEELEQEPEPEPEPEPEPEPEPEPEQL
Experimental: as §1, §2

[2] = biological target: T4, human LAG-3-ECD.D12.mFc mutant D155A (human, UniProt P18627 37-252); experiment: ELISA, antibody coated, LAG-3 D12.mFc mutant in supernatant, normalised to control mutants
T4 construct: Alanine scanning mutant; construct limits as for m26
T4 chain: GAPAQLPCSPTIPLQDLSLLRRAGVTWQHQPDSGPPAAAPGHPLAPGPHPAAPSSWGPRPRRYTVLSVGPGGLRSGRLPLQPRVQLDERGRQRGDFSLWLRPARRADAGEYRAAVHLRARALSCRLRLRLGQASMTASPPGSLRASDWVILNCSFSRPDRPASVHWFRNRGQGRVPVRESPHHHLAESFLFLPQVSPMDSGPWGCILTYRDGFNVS
In short: (§3)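 Antibody 1.53.3-uAb-IgG4k or 3.40.19-uAb-hIgG4L coated at 2 μg/mL, then exposed to supernatant containing quantified LAG-3 D12.mFc mutants. Detection with HRP anti-mFc (1:5000). Absorbance normalized to mean of control mutants; binding fold change <0.75 set as epitope cutoff.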

[3] = biological target: T5, human LAG-3-ECD.D12.mFc mutant T100A (human, UniProt P18627 37-252); experiment: as above
T5 construct: Alanine scanning mutant; construct limits as for m26
T5 chain: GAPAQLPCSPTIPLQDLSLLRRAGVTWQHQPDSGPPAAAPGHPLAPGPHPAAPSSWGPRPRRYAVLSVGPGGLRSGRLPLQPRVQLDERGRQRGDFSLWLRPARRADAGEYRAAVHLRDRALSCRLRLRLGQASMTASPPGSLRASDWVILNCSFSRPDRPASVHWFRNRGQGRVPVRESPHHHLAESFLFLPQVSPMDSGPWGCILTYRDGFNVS
In short: as §3

| Binder | MFI [1] | PE+ % [1] [%] | MFI (Variant 1: xPro1.FL-x1) | PE+ % (Variant 1: xPro1.FL-x1) [%] | MFI (Variant 8: xPro1.FL-x8) | PE+ % (Variant 8: xPro1.FL-x8) [%] | Fold Change [2] | Fold Change [3] |
| --- | --- | --- | --- | --- | --- | --- | --- | --- |
| 1.53.3-uAb-IgG4k (antibody, V domains shown, Fully human antibody from OMT rats; IgG4 kappa by its name) VH: QVQLQQWGAGLLKPSETLSLTCGVYGGSFSGYYWSWIRQPPGMGLEWIGEINHRGNTNYNPSLKSRVTISEDTSKNQFSLRLSSVTAADTAVYFCTRGEDYSDYDYYGDFWGQGTLVTVSS VL: EIVLTQSPATLSLSQGERATLSCRASQSISSYLAWYQQKPGQAPRLLIYAASNRATGIPARFSGSGSGTDFTLTISSLEPEDFAIYYCQQRSNWPLTFGGGTKVEIK | 43.9 | 1.1 | 8580 | 97 | 7430 | 97.6 | – | – |
| 3.40.19-uAb-IgG4L (antibody, V domains shown, Fully human antibody from OMT rats; IgG4 lambda by its name; also called 3.40.19-uAb-hIgG4L) VH: QLQLQESGPGLVKPSETLSLTCTVSGDSISSTSYYWGWIRQPPGKGLEWIGSFYYSGSTYYNPSLKSRVTISVDTSKNQFSLKLNSVTAADTAVYYCARMQLWSYDVDVWGQGTTVTVSS VL: QSALTQPASVSGSPGQSITISCTGTSSDVGGYDYVAWYQQHPGKVPKLMIYDVSERPSGVSNRFSGSKSGNTASLTISGLQAEDEADYYCSSYTSTTTLVVFGGGTKLSVL | – | – | – | – | – | – | 0.701 | 0.738 |
